# What was measured:
# WT hIL-1β [1] = biological target: T1, WT hIL-1β (human, UniProt P01584 117-269); assay: cell-based or functional assay
# WT hIL-1β [2] = biological target: T1, WT hIL-1β; assay: competitive ELISA on coated WT hIL-1β; canakinumab diluted in series, competitor E64AK-F4-mFc (100 nM)
# E64AK-F4-mFc = biological target: T2, E64AK-F4-mFc (mouse, UniProt P01863 123-330 = IgG part); assay: ELISA, antigen coated
# T2 construct: scFv fused to the Fc of mouse IgG2a by a linker; also called E64AK-F4-mFc fusion antibody
# T2 sequence (VL, as listed by the source limits assumed, chain 1 of 3): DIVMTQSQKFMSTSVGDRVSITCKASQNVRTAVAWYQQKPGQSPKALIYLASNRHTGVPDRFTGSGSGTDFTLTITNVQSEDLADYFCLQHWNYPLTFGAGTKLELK
# T2 sequence (VH, as listed by the source limits assumed, chain 2 of 3): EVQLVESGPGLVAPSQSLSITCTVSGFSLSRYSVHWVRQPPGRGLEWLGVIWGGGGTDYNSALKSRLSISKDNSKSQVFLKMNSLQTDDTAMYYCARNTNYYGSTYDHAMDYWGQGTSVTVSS
# T2 sequence (P01863 other isoform, or with tags, fused parts or gaps limits assumed, chain 3 of 3): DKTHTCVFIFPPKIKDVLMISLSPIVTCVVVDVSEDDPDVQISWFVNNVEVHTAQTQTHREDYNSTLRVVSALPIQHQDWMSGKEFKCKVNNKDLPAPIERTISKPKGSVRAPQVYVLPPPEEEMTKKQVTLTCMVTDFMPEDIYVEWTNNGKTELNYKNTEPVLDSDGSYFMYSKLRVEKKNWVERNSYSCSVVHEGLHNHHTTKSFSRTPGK
Binder,"inhibition of IL-1β-induced activation of HEK-Blue IL-1R cells (SEAP), IC50 (WT hIL-1β [1]) [nM]",IC50 (WT hIL-1β [2]) [nM],binding result (E64AK-F4-mFc)
"Canakinumab (antibody, V domains shown) VH: QVQLVESGGGVVQPGRSLRLSCAASGFTFSVYGMNWVRQAPGKGLEWVAIIWYDGDNQYYADSVKGRFTISRDNSKNTLYLQMNGLRAEDTAVYYCARDLRTGPFDYWGQGTLVTVSS VL: EIVLTQSPDFQSVTPKEKVTITCRASQSIGSSLHWYQQKPDQSPKLLIKYASQSFSGVPSRFSGSGSGTDFTLTINSLEAEDAAAYYCHQSSSLPFTFGPGTKVDIKR",4.7,2.1,–
"hIL-1β63-66A (ligand, also called IL-1β mutant containing four alanine mutations; hIL-1βE63-66A) APVRSLNCTLRDSQQKSLVMSGPYELKALHLQGQDMEQQVVFSMSFVQGEESNDKIPVALGLAAAALYLSCVLKDDKPTLQLESVDPKNYPKKKMEKRFVFNKIEINNKLEFESAQFPNWYISTSQAENMPVFLGGTKGGQDITDFTMQFVSS",–,–,no binding

# Source: patent US20240425546A1 (NANTONG YICHEN BIOPHARMA, published 2024)
